Results reported in article PMC9206387, “LILRB2-mediated TREM2 signaling inhibition suppresses microglia functions” (Molecular Neurodegeneration, 2022).

Molecular target: T1, oligomeric β-amyloid (1-42) (UniProt P05067 672-713)
T1 construct: the cut product β-amyloid (1-42) of the amyloid precursor protein; Oligomer; The methods of the direct BLI, reporter and BiFc assays name no label for oAβ; also called oAβ; Oligomer Aβ; source: bought: AnaSpec (lyophilized powder); HFIP-treated, dissolved in DMSO, oligomerised in DPBS at 37 °C overnight
Assay: BLI; protein A sensor-captured Fc fusion proteins, oAβ at multiple concentrations, 1:1 binding model, KD calculated as kdis/kon
Conditions: both partners purified

B1: TREM2-Fc fusion protein (extracellular domain of TREM2 fused to human IgG1 Fc) (Fc fusion, UniProt Q9NZC2 19-174, looked up)
chain: HNTTVFQGVAGQSLQVSCPYDSMKHWGRRKAWCRQLGEKGPCQRVVSTHNLWLLSFLRRWNGSTAITDDTLGGTLTITLRNLQPHDAGLYQCQSLHGSEADTLRKVLVEVLADPLDHRDAGDLWFPGESESFEDAHVEHSISRSLLEGEIPFPPTS
notes: triggering receptor expressed on myeloid cells 2 (TREM2), extracellular domain (ECD); source: Expi 293 cells, purified (protein A agarose)
**Q.** With B1 as the binder, how does the Kd read?
**A.** Its Kd is 12.6 nM.

**Q.** What about the koff of the same binder?
**A.** The koff was 0.000123 s⁻¹.

B2: LILRB2-Fc fusion protein (extracellular domain of LILRB2 fused to human IgG1 Fc) (Fc fusion, UniProt Q8N423 22-460, looked up)
chain: QTGTIPKPTLWAEPDSVITQGSPVTLSCQGSLEAQEYRLYREKKSASWITRIRPELVKNGQFHIPSITWEHTGRYGCQYYSRARWSELSDPLVLVMTGAYPKPTLSAQPSPVVTSGGRVTLQCESQVAFGGFILCKEGEDEHPQCLNSQPHARGSSRAIFSVGPVSPNRRWSHRCYGYDLNSPYVWSSPSDLLELLVPGVSKKPSLSVQPGPVMAPGESLTLQCVSDVGYDRFVLYKEGERDLRQLPGRQPQAGLSQANFTLGPVSRSYGGQYRCYGAHNLSSECSAPSDPLDILITGQIRGTPFISVQPGPTVASGENVTLLCQSWRQFHTFLLTKAGAADAPLRLRSIHEYPKYQAEFPMSPVTSAHAGTYRCYGSLNSDPYLLSHPSEPLELVVSGPSMGSSPPPTGPISTPGPEDQPLTPTGSDPQSGLGRHLGV
notes: leukocyte immunoglobulin-like receptor subfamily B member 2 (LILRB2), extracellular domain (ECD) with four Ig-like domains; source: Expi 293 cells, purified (protein A agarose)
**Q.** For B2, which Kd is on record?
**A.** The Kd was 69.3 nM.

**Q.** What about the koff of the same binder?
**A.** The koff was 0.000593 s⁻¹.
